B1: HDV Ribozyme (parent)
chain: GGCCGGCAUGGUCCCAGCCUCCUCGCUGGCGCCGGCUGGGCAACAUUCCGAGGGGACCGUCCCCUCGGUAAUGGCGAAUGGGACCCA

Variants of: B1
Assay: self-cleavage, relative activity (ratio to wild type); higher = more cleavage; co-transcriptional
For C48U G82U, the self-cleavage was 0.437.
Work on C49G G82A yielded a self-cleavage of 0.0966.
G50C G73U showed a self-cleavage of 0.246.
With G50C G73C the self-cleavage was 0.601.
For C49U C85U, the self-cleavage was 0.799.
In the case of C49U C85G, the self-cleavage is reported as 0.876.
Work on C49U G59C yielded a self-cleavage of 0.799.
In the case of C49U G59A, the self-cleavage is reported as 0.935.
In the case of C49U G59U, the self-cleavage is reported as 0.858.
Variant G50C C75U has a self-cleavage of 0.162.
Variant G50C C75G has a self-cleavage of 0.
Variant G50C C75A has a self-cleavage of 0.242.
G50C U69C gave a self-cleavage of 1.07.
In the case of G50C G52A, the self-cleavage is reported as 0.66.
For G50C G52U, the self-cleavage was 0.554.
G50C G52C showed a self-cleavage of 0.554.
For C49G G80U, the self-cleavage was 0.123.
Work on C49G G80A yielded a self-cleavage of 0.465.
C49G G80C gave a self-cleavage of 0.178.
C48U G80U showed a self-cleavage of 0.194.
Work on C49G A78U yielded a self-cleavage of 0.138.
C49G A78C showed a self-cleavage of 0.262.
With C49U U79G the self-cleavage was 0.688.
With C49U U79C the self-cleavage was 0.47.
With G50A A51U the self-cleavage was 0.763.
G50A A51C showed a self-cleavage of 0.991.
Work on C48U U69G yielded a self-cleavage of 0.869.
G50C G67U showed a self-cleavage of 0.795.
With G50C G67C the self-cleavage was 0.399.
For G50C G67A, the self-cleavage was 0.565.
With C48U G52A the self-cleavage was 0.931.
G50A U69A showed a self-cleavage of 1.01.
For G50U A71G, the self-cleavage was 0.78.
Work on G50U A71C yielded a self-cleavage of 0.435.
For C49G G67U, the self-cleavage was 0.9.
In the case of C49G G67A, the self-cleavage is reported as 0.637.
With G50C A83U the self-cleavage was 0.504.
G50C A83G showed a self-cleavage of 0.491.
Variant C49G A87C has a self-cleavage of 0.672.
Work on C49G A56U yielded a self-cleavage of 0.96.
Work on C49G A56G yielded a self-cleavage of 0.917.
With C49G C58G the self-cleavage was 0.855.
Work on C49G C58U yielded a self-cleavage of 1.05.
In the case of C48U C62G, the self-cleavage is reported as 0.485.
C48U C62A gave a self-cleavage of 0.847.
In the case of C48U C62U, the self-cleavage is reported as 1.15.
In the case of C49A A87U, the self-cleavage is reported as 0.857.
Work on C49U A78G yielded a self-cleavage of 0.692.
With C49A G59C the self-cleavage was 1.08.
Work on C49A G59U yielded a self-cleavage of 0.945.
In the case of C49A A77U, the self-cleavage is reported as 0.404.
Work on C49A A77G yielded a self-cleavage of 0.458.
Work on C49A A77C yielded a self-cleavage of 0.252.
Work on C49A C58A yielded a self-cleavage of 0.986.
C49A C58G showed a self-cleavage of 0.988.
C49A C58U showed a self-cleavage of 1.04.
With C49U C62G the self-cleavage was 0.665.
In the case of C49A G53C, the self-cleavage is reported as 0.506.
C49A G53A gave a self-cleavage of 0.816.
In the case of C49U G53A, the self-cleavage is reported as 0.916.
For C49U G53C, the self-cleavage was 1.05.
G50A U65G showed a self-cleavage of 0.95.
G50A U65C showed a self-cleavage of 0.769.
For G50C U60C, the self-cleavage was 1.13.
For G50U A70C, the self-cleavage was 0.795.
Variant G50U A70G has a self-cleavage of 0.846.
With C49A G82C the self-cleavage was 0.222.
G50U C61A showed a self-cleavage of 0.986.
With G50U C61U the self-cleavage was 0.59.
For G50U C61G, the self-cleavage was 0.67.
C49U C61G showed a self-cleavage of 0.731.
C49U C61A gave a self-cleavage of 0.76.
In the case of C48U G55C, the self-cleavage is reported as 0.938.
With G50C G54A the self-cleavage was 0.369.
C49U A71U gave a self-cleavage of 0.875.
C49U A71C gave a self-cleavage of 0.641.
Work on C49U A71G yielded a self-cleavage of 1.16.
For C49G G55U, the self-cleavage was 0.844.
With C49A G73C the self-cleavage was 0.293.
With G50C A71C the self-cleavage was 0.252.
G50C A71U showed a self-cleavage of 0.554.
C49A U60G showed a self-cleavage of 1.33.
C49A U60A gave a self-cleavage of 0.745.
In the case of C49G C86U, the self-cleavage is reported as 0.831.
With C49G C86A the self-cleavage was 0.966.
C49U G54U showed a self-cleavage of 0.87.
Work on C49U G54C yielded a self-cleavage of 0.856.
G50A G74U gave a self-cleavage of 0.483.
With G50U C58G the self-cleavage was 0.89.
G50U C58A showed a self-cleavage of 0.997.
Variant C49A A78C has a self-cleavage of 0.116.
Work on G50A G55A yielded a self-cleavage of 0.783.
G50U A56C showed a self-cleavage of 1.18.
With G50U A56U the self-cleavage was 1.06.
G50U A56G showed a self-cleavage of 0.943.
Work on C49G G68U yielded a self-cleavage of 0.808.
G50C C62U gave a self-cleavage of 0.939.
For G50C C62A, the self-cleavage was 0.475.
G50C C62G showed a self-cleavage of 0.
For C49G U72G, the self-cleavage was 0.604.
For C49G U72A, the self-cleavage was 0.0692.
C49G U69G gave a self-cleavage of 0.831.
C49G U69A showed a self-cleavage of 0.798.
C49G U69C showed a self-cleavage of 0.898.
For C48U G54A, the self-cleavage was 0.813.
For C49A C85A, the self-cleavage was 1.13.
With C49A C85U the self-cleavage was 0.811.
Work on G50A U72C yielded a self-cleavage of 0.45.
Work on G50C C86U yielded a self-cleavage of 0.748.
With G50C C86A the self-cleavage was 0.929.
G50C C86G showed a self-cleavage of 0.944.
For C48U U79C, the self-cleavage was 0.45.
Variant C49U G74U has a self-cleavage of 0.507.
For C48U C57G, the self-cleavage was 0.798.
With C48U C57U the self-cleavage was 0.969.
In the case of G50C G53C, the self-cleavage is reported as 0.18.
C48U G81A gave a self-cleavage of 0.308.
C48U G81C showed a self-cleavage of 0.381.
C49A G76A gave a self-cleavage of 0.991.
C49A G76U gave a self-cleavage of 1.01.
For C49U G81C, the self-cleavage was 0.317.
C48U C75U showed a self-cleavage of 0.211.
C48U C75G showed a self-cleavage of 0.0852.
Variant G50A G76A has a self-cleavage of 1.05.
G50A G76C showed a self-cleavage of 0.98.
In the case of C49G A70C, the self-cleavage is reported as 0.415.
Variant C49G A70U has a self-cleavage of 0.429.
With C49A A83C the self-cleavage was 0.6.
C48U G73A showed a self-cleavage of 0.526.
Work on C48U G73U yielded a self-cleavage of 0.521.
In the case of C49U C57U, the self-cleavage is reported as 1.18.
C49U C57G gave a self-cleavage of 1.19.
G50A G52C gave a self-cleavage of 0.672.
C49A A51U gave a self-cleavage of 0.539.
G50C G80C showed a self-cleavage of 0.0906.
Variant G50C G80U has a self-cleavage of 0.225.
C49U A77G gave a self-cleavage of 0.95.
C49U A77U showed a self-cleavage of 0.297.
In the case of C49A U69A, the self-cleavage is reported as 0.808.
C49A C84G showed a self-cleavage of 0.743.
C49A C84U showed a self-cleavage of 0.686.
Work on C49A G74C yielded a self-cleavage of 0.0755.
G50C G81A showed a self-cleavage of 0.443.
Variant C49G A71C has a self-cleavage of 0.302.
With C49A G67A the self-cleavage was 1.27.
Variant G50C C66G has a self-cleavage of 0.912.
In the case of G50A C66A, the self-cleavage is reported as 1.18.
Work on C48U C66A yielded a self-cleavage of 0.923.
With C48U C66U the self-cleavage was 0.947.
In the case of C48U C66G, the self-cleavage is reported as 0.658.
C49A U79G gave a self-cleavage of 0.665.
Work on C49A U79C yielded a self-cleavage of 0.61.
For C49G C57A, the self-cleavage was 1.19.
G50C C58A showed a self-cleavage of 1.
For C49U G68C, the self-cleavage was 0.784.
With C49U G68A the self-cleavage was 0.987.
For G50A G59U, the self-cleavage was 1.18.
Work on G50A G59A yielded a self-cleavage of 1.03.
G50C C84U showed a self-cleavage of 0.554.
Work on C49A A56C yielded a self-cleavage of 1.05.
Work on C49A A56U yielded a self-cleavage of 1.1.
G50C U72G gave a self-cleavage of 0.415.
Work on C48U G68A yielded a self-cleavage of 0.885.
Variant C49U U72A has a self-cleavage of 0.965.
Work on C49U U72G yielded a self-cleavage of 0.745.
C49U U72C gave a self-cleavage of 0.554.
Variant C48U C64G has a self-cleavage of 0.721.

Source: the RNAGym collection of RNA variant scans (doi:10.7554/elife.80360)
